# Article PMC11889601, “The structural integrity of human TFF1 under reducing conditions” (Redox Biology, 2025)
# Ends that are not written are not given here.
# B1: TFF2: trefoil factor family secretory peptide 2 (protein, UniProt Q03403 24-129, looked up)
# Trefoil factor 2: EKPSPCQCSRLSPHNRTNCGFPGITSDQCFDNGCCFDSSVTGVPWCFHPLPKQESDQCVMEVSDRRNCGYPGISPEECASRKCCFSNFIFEVPWCFFPKSVEDCHY
# What was measured:
# [1] = monomer and homodimer TFF3 domains; reduced glutathione 10 equivalents, 100 μM, pH 7; ref [22]; cited from earlier work
# Text: (§1) Many secretory proteins contain disulfide bonds, with most formed during folding in the endoplasmic reticulum. The trefoil factor family (TFF) is a highly relevant example of such secretory peptides in humans, with three characteristic peptides (TFF1, TFF2, TFF3) produced by mucous epithelia. They are most abundantly secreted throughout different compartments of the gastrointestinal tract, where they have important functions in protecting the epithelium barrier and maintaining mucosal epithelial homeostasis. Each member of the family has at least one highly conserved TF ...
# [2] = tested on: gastrointestinal proteases; details: ref [17]-[21]; cited from earlier work
# Text: as §1
# [3] = Reductive stability of disulfide bonds: TCEP reduction, IAM alkylation, LC-MS; assay type: physicochemical; details: chemical stability to reduction, 30 min, room temperature (25 °C), then IAM 100 eq/Cys 5 min, TFA quench; for Reduction and alkylation of disulfide bonds with 5 equivalents of TCEP: peptide 150 μM in 100 mM tris.HCl pH 7.4, 5 molar equivalents TCEP per peptide; for Reduction and alkylation of disulfide bonds with 15 equivalents of TCEP: peptide 150 μM in 100 mM tris.HCl pH 7.4, 15 molar equivalents TCEP per peptide; for Reduction and alkylation of disulfide bonds with 150 equivalents of TCEP: peptide 150 μM in 100 mM tris.HCl pH 7.4, 150 molar equivalents TCEP per peptide
# Experimental: Peptides were purified by preparative RP-HPLC using a C5 column (Phenomenex Luna; 10 μm, 21.2 mm ID × 250 mm; flow rate 20 mL/min) on a Shimadzu LC-20A system running a linear gradient of solvents A (0.1 % TFA (aq) and B (90 % acetonitrile (aq)/0.1 % TFA). Fractions were analyzed by liquid chromatography-mass spectrometry (LC-MS), and those containing the desired peptide and >95 % purity were pooled and lyophilized. LC-MS analyses were performed on a C18 column (Agilent Eclipse Plus; […], 2.1 mm ID x 50 mm; flow rate 0.25 mL/min), using a QSTAR Elite electrospray ionization quadrupole time-of-flight (ESI QqTOF) mass spectrometer (SCIEX) linked to an upstream Shimadzu LC-20A HPLC system. HPLC solvents were the same as described previously, substituting formic acid for TFA. Peptides were separated on a gradient of 2–60 % B over 10 min and analyzed over a mass range of 200–2000 amu.
# Peptides (TFF1, linaclotide, or BPTI) were dissolved to a concentration of 150 μM in 100 mM tris.HCl, pH 7.4. TCEP and IAM were prepared as separate 0.5 M solutions in 100 mM tris.HCl and the pH of all solutions were adjusted with concentrated KOH to pH 7.4. 25 μL of peptide (3.75 nmol) were treated with 0.5 M TCEP (0–150 molar equivalents per peptide). The samples were incubated at room temperature (25 °C) for 30 min, whereby they were treated with 5 μL (2.5 μmol; 100 eq/Cys) IAM for 5 min, followed by quenching with 5 μL TFA to reduce the pH to 2–3. Samples were then analyzed by LC-MS.
molecule,measurement,setting,value
"TFF3: trefoil factor family secretory peptide 3, with TFF domain (EEYVGLSANQCAVPAKDRVDCGYPHVTPKECNNRGCCFDSRIPGVPWCFKPLQEAECTF; ends and bridges not checked; also: three intramolecular disulfides in TFF domain, pairing not given here; UniProt Q07654 22-80, looked up)",Persistence of disulfide bonds in the presence of reduced glutathione,[1],no disulfide bond reduction or scrambling detected
same,Resistance of the TFF domain to gastrointestinal proteases,[2],resistance
bovine pancreatic trypsin inhibitor [BPTI],Reduction and alkylation of disulfide bonds with 5 equivalents of TCEP,[3],complete reduction and alkylation of a single disulfide bond
same,Reduction and alkylation of disulfide bonds with 15 equivalents of TCEP,[3],no further reduction
same,Reduction and alkylation of disulfide bonds with 150 equivalents of TCEP,[3],No further reduction
linaclotide,Reduction and alkylation of disulfide bonds with 5 equivalents of TCEP,[3],partial reduction and alkylation of a single disulfide bond
same,Reduction and alkylation of disulfide bonds with 15 equivalents of TCEP,[3],fully reduced and alkylated
same,Reduction and alkylation of disulfide bonds with 150 equivalents of TCEP,[3],fully reduced and alkylated
B1,Resistance of the TFF domain to gastrointestinal proteases,[2],resistance
